The values that follow come from FireProtDB (doi:10.1021/bi048182n).

For this data set the following is noted: Bos taurus, pH 8.4, 23 °C, GdnHCl, HPLC, Tris-HCl 0.1 M, reversible: yes, whole UniProt chain shown.

Several values for one entry are separate records, joined by “and”; a condition that tells them apart may be missing. Equal values may be shown once.

B1: Alpha-lactalbumin wild type, P00711 (protein)
chain: MMSFVSLLLVGILFHATQAEQLTKCEVFRELKDLKGYGGVSLPEWVCTTFHTSGYDTQAIVQNNDSTEYGLFQINNKIWCKDDQNPHSSNICNISCDKFLDDDLTDDIMCVKKILDKVGINYWLAHKALCSEKLDQWLCEKL
On to B1, for which the denaturant m value was 2.3 kcal/mol/M and 3.4 kcal/mol/M; the “denaturant midpoint (higher = more stable)” value was 1.1 M and 0.4 M; the unfolding free energy was 2.53 kcal/mol and 1.36 kcal/mol. Further, where the note is “CaCl2 5 mM”, the denaturant m value was 2.1 kcal/mol/M and 2.4 kcal/mol/M; the “denaturant midpoint (higher = more stable)” value was 2.15 M and 1.4 M; the unfolding free energy is 4.52 kcal/mol and 3.36 kcal/mol.
